Laboratory results as given in the supplement of paper PMC9112550, “Optimization of the antimicrobial peptide Bac7 by deep mutational scanning” (BMC Biology, 2022).

Test system: Escherichia coli TOP10
Experiment: shrunken log2 fold change of peptide-encoding DNA abundance (4.5 h post-induction vs induction); higher = less antimicrobial activity (less host growth inhibition)
Conditions: time post-induction: 4.5 h; library: site-saturation at positions 5, 18, 19, 20
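Also: peptides expressed intracellularly from a pBAD plasmid library in pooled LB shake-flask culture, induced with 0.3% L-arabinose, DNA abundance read by NGS, three biological replicates, DESeq2 with apeglm shrinkage.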

| Sequence | shrunken log2 fold change |
| --- | --- |
| RRIRARPPRLPRPRPRPSNRPRP | -0.457 |
| RRIRMRPPRLPRPRPRPRDCPRP | 0.288 |
| RRIRKRPPRLPRPRPRPKTAPRP | 0.2 |
| RRIRVRPPRLPRPRPRPFGGPRP | -0.216 |
| RRIRNRPPRLPRPRPRPKSSPRP | -0.0182 |
| RRIRKRPPRLPRPRPRPNWQPRP | 0.0483 |
| RRIRCRPPRLPRPRPRPTWIPRP | 0.24 |
| RRIRRRPPRLPRPRPRPTAAPRP | 1.21 |
| RRIRARPPRLPRPRPRPTEHPRP | 0.46 |
| RRIRERPPRLPRPRPRPTSKPRP | -0.426 |
| RRIRWRPPRLPRPRPRPNWEPRP | -0.00663 |
| RRIRPRPPRLPRPRPRPFRDPRP | -0.118 |
| RRIRERPPRLPRPRPRPANTPRP | 1.45 |
| RRIRRRPPRLPRPRPRPMMTPRP | 0.975 |
| RRIRVRPPRLPRPRPRPNCTPRP | -0.0535 |
| RRIRERPPRLPRPRPRPENRPRP | -0.29 |
| RRIRWRPPRLPRPRPRPIPEPRP | -0.0356 |
| RRIRSRPPRLPRPRPRPSFCPRP | -0.251 |
| RRIRSRPPRLPRPRPRPGQFPRP | -0.112 |
| RRIRRRPPRLPRPRPRPCAKPRP | 0.164 |
| RRIRNRPPRLPRPRPRPTNIPRP | -0.312 |
| RRIRWRPPRLPRPRPRPFDYPRP | -0.554 |
| RRIRRRPPRLPRPRPRPLCKPRP | 0.167 |
| RRIRWRPPRLPRPRPRPVRMPRP | -0.0133 |
| RRIRTRPPRLPRPRPRPINSPRP | -0.875 |

| Sequence | shrunken log2 fold change |
| --- | --- |
| RRIRQRPPRLPRPRPRPIFQPRP | -0.269 |
| RRIRLRPPRLPRPRPRPVDEPRP | -0.0573 |
| RRIRRRPPRLPRPRPRPYRNPRP | 0.0114 |
| RRIRQRPPRLPRPRPRPMGQPRP | 0.0628 |
| RRIRSRPPRLPRPRPRPFYEPRP | -0.165 |
| RRIRFRPPRLPRPRPRPDSWPRP | -0.161 |
| RRIRNRPPRLPRPRPRPRVHPRP | 0.172 |
| RRIRVRPPRLPRPRPRPQIDPRP | -0.321 |
| RRIRGRPPRLPRPRPRPNEFPRP | 0.141 |
| RRIRCRPPRLPRPRPRPPTEPRP | 1.77 |
| RRIRWRPPRLPRPRPRPSWYPRP | -0.239 |
| RRIRYRPPRLPRPRPRPKMSPRP | -0.562 |
| RRIRVRPPRLPRPRPRPVMMPRP | -0.938 |
| RRIRRRPPRLPRPRPRPSLRPRP | -0.0199 |
| RRIRIRPPRLPRPRPRPRMPPRP | -0.0534 |
| RRIRARPPRLPRPRPRPHGLPRP | 0.268 |
| RRIRSRPPRLPRPRPRPGMLPRP | -0.0372 |
| RRIRKRPPRLPRPRPRPDTPPRP | 0.546 |
| RRIRYRPPRLPRPRPRPRKGPRP | -0.013 |
| RRIRFRPPRLPRPRPRPFMYPRP | -0.742 |
| RRIRNRPPRLPRPRPRPTCWPRP | 0.696 |
| RRIRCRPPRLPRPRPRPPEKPRP | 0.299 |
| RRIRQRPPRLPRPRPRPTIDPRP | -0.0223 |
| RRIRKRPPRLPRPRPRPLTGPRP | -0.0975 |
| RRIRMRPPRLPRPRPRPGGSPRP | 1.07 |

| Sequence | shrunken log2 fold change |
| --- | --- |
| RRIRPRPPRLPRPRPRPYLNPRP | -0.765 |
| RRIRVRPPRLPRPRPRPPDHPRP | 0.271 |
| RRIRNRPPRLPRPRPRPRNYPRP | -0.123 |
| RRIRARPPRLPRPRPRPQFLPRP | -0.265 |
| RRIRRRPPRLPRPRPRPPTEPRP | 0.315 |
| RRIRWRPPRLPRPRPRPQHVPRP | -0.274 |
| RRIRDRPPRLPRPRPRPWRSPRP | 0.105 |
| RRIRYRPPRLPRPRPRPTFNPRP | -0.73 |
| RRIRNRPPRLPRPRPRPDVNPRP | -0.00804 |
| RRIRMRPPRLPRPRPRPWRPPRP | 0.308 |
| RRIRSRPPRLPRPRPRPVTYPRP | -0.273 |
| RRIRPRPPRLPRPRPRPVTLPRP | 0.527 |
| RRIRERPPRLPRPRPRPWEVPRP | -0.17 |
| RRIRKRPPRLPRPRPRPLIPPRP | -0.000217 |
| RRIRRRPPRLPRPRPRPQADPRP | 0.312 |
| RRIRPRPPRLPRPRPRPHDVPRP | -0.242 |
| RRIRLRPPRLPRPRPRPTDKPRP | -0.251 |
| RRIRPRPPRLPRPRPRPEAYPRP | 0.00183 |
| RRIRLRPPRLPRPRPRPRTQPRP | 0.0772 |
| RRIRVRPPRLPRPRPRPMCFPRP | -0.178 |
| RRIRRRPPRLPRPRPRPKCCPRP | 0.00261 |
| RRIRKRPPRLPRPRPRPYHCPRP | -0.0129 |
| RRIRMRPPRLPRPRPRPVAIPRP | 0.104 |
| RRIRYRPPRLPRPRPRPYKLPRP | -0.491 |
| RRIRHRPPRLPRPRPRPEWAPRP | -0.0848 |

| Sequence | shrunken log2 fold change |
| --- | --- |
| RRIRCRPPRLPRPRPRPFFYPRP | -0.32 |
| RRIRRRPPRLPRPRPRPALIPRP | 1.05 |
| RRIRPRPPRLPRPRPRPNITPRP | -0.293 |
| RRIRARPPRLPRPRPRPRWSPRP | 0.53 |
| RRIRTRPPRLPRPRPRPCFWPRP | 0.0653 |
| RRIRKRPPRLPRPRPRPQPAPRP | 0.783 |
| RRIRFRPPRLPRPRPRPSVWPRP | -0.229 |
| RRIRYRPPRLPRPRPRPYGVPRP | -0.00992 |
| RRIRWRPPRLPRPRPRPVKVPRP | -0.0471 |
| RRIRVRPPRLPRPRPRPNPDPRP | -0.0161 |
| RRIRHRPPRLPRPRPRPCHQPRP | -0.601 |
| RRIRVRPPRLPRPRPRPCKGPRP | -0.117 |
| RRIRIRPPRLPRPRPRPIWRPRP | 0.529 |
| RRIRSRPPRLPRPRPRPKSQPRP | 0.164 |
| RRIRPRPPRLPRPRPRPYVNPRP | -1.34 |
| RRIRPRPPRLPRPRPRPPHSPRP | 1.31 |
| RRIRLRPPRLPRPRPRPFMHPRP | -0.326 |
| RRIRCRPPRLPRPRPRPSQDPRP | 0.0757 |
| RRIRCRPPRLPRPRPRPFHSPRP | -0.458 |
| RRIRDRPPRLPRPRPRPCMSPRP | -0.256 |
| RRIRIRPPRLPRPRPRPCCPPRP | -0.168 |
| RRIRFRPPRLPRPRPRPCDRPRP | -0.179 |
| RRIRDRPPRLPRPRPRPRVKPRP | 0.103 |
| RRIRNRPPRLPRPRPRPKLVPRP | 0.163 |
| RRIRYRPPRLPRPRPRPRYSPRP | -1.43 |

| Sequence | shrunken log2 fold change |
| --- | --- |
| RRIRTRPPRLPRPRPRPCLWPRP | -0.0838 |
| RRIRKRPPRLPRPRPRPVIRPRP | 0.0302 |
| RRIRKRPPRLPRPRPRPLHGPRP | -0.0122 |
| RRIRVRPPRLPRPRPRPKTHPRP | -0.0994 |
| RRIRNRPPRLPRPRPRPRMGPRP | 0.0394 |
| RRIRWRPPRLPRPRPRPQKRPRP | 0.00899 |
| RRIRIRPPRLPRPRPRPEYDPRP | 0.0262 |
| RRIRTRPPRLPRPRPRPQKKPRP | 0.0215 |
| RRIRVRPPRLPRPRPRPATWPRP | 0.218 |
| RRIRMRPPRLPRPRPRPAGGPRP | 0.831 |
| RRIRTRPPRLPRPRPRPHSAPRP | 0.205 |
| RRIRMRPPRLPRPRPRPLACPRP | 0.244 |
| RRIRWRPPRLPRPRPRPGTKPRP | 0.139 |
| RRIRVRPPRLPRPRPRPELSPRP | 0.119 |
| RRIRWRPPRLPRPRPRPDPWPRP | 0.0147 |
| RRIRNRPPRLPRPRPRPTFVPRP | -0.185 |
| RRIRKRPPRLPRPRPRPMYLPRP | 0.239 |
| RRIRPRPPRLPRPRPRPYFFPRP | -0.593 |
| RRIRVRPPRLPRPRPRPMTDPRP | 0.168 |
| RRIRQRPPRLPRPRPRPQKLPRP | -0.0725 |
| RRIRHRPPRLPRPRPRPHEPPRP | -0.0274 |
| RRIRERPPRLPRPRPRPSFEPRP | -0.132 |
| RRIRRRPPRLPRPRPRPQCSPRP | 0.109 |
| RRIRFRPPRLPRPRPRPNTKPRP | -0.323 |
| RRIRSRPPRLPRPRPRPNTVPRP | -0.308 |

| Sequence | shrunken log2 fold change |
| --- | --- |
| RRIRNRPPRLPRPRPRPLQVPRP | -0.136 |
| RRIRQRPPRLPRPRPRPPRNPRP | 0.765 |
| RRIRTRPPRLPRPRPRPGCSPRP | 0.0133 |
| RRIRIRPPRLPRPRPRPHMAPRP | -0.367 |
| RRIRYRPPRLPRPRPRPRWIPRP | -0.553 |
| RRIRIRPPRLPRPRPRPVSKPRP | -0.0544 |
| RRIRQRPPRLPRPRPRPCSMPRP | -0.273 |
| RRIRLRPPRLPRPRPRPNLQPRP | -0.0904 |
| RRIRQRPPRLPRPRPRPTHDPRP | 0.911 |
| RRIRNRPPRLPRPRPRPPDSPRP | 0.0377 |
| RRIRVRPPRLPRPRPRPRYFPRP | -0.446 |
| RRIRTRPPRLPRPRPRPALTPRP | 0.251 |
| RRIRDRPPRLPRPRPRPRPTPRP | 0.381 |
| RRIRDRPPRLPRPRPRPVMYPRP | -0.166 |
| RRIRLRPPRLPRPRPRPNVDPRP | -0.492 |
| RRIRMRPPRLPRPRPRPIRLPRP | 0.0373 |
| RRIRARPPRLPRPRPRPITHPRP | -0.045 |
| RRIRFRPPRLPRPRPRPHCQPRP | -0.125 |
| RRIRTRPPRLPRPRPRPSYPPRP | -1.08 |
| RRIRTRPPRLPRPRPRPMQPPRP | 0.0715 |
| RRIRWRPPRLPRPRPRPGVLPRP | 0.0321 |
| RRIRGRPPRLPRPRPRPLRPPRP | 1.47 |
| RRIRGRPPRLPRPRPRPTDHPRP | 0.335 |
| RRIRFRPPRLPRPRPRPLSCPRP | -0.73 |
| RRIRARPPRLPRPRPRPSYDPRP | -0.52 |
